Source: CN117924490A (CHINA RESOURCES BIOMEDICAL CO LTD, dated 2024)

How the values were obtained:
[1] = target: T1, 人IL-4R表达于HEK293-IL-4R细胞表面 (human IL-4R on the surface of HEK293-IL-4R cells) (human, UniProt P24394 26-825); assay: FACS on HEK293-IL-4R cells, FITC anti-human IgG, MFI
T1 construct: whole, on cells; The construct in the HEK293-IL-4R line is not described; also called 人IL-4R过表达细胞; 细胞表面IL-4R
T1 sequence (looked up): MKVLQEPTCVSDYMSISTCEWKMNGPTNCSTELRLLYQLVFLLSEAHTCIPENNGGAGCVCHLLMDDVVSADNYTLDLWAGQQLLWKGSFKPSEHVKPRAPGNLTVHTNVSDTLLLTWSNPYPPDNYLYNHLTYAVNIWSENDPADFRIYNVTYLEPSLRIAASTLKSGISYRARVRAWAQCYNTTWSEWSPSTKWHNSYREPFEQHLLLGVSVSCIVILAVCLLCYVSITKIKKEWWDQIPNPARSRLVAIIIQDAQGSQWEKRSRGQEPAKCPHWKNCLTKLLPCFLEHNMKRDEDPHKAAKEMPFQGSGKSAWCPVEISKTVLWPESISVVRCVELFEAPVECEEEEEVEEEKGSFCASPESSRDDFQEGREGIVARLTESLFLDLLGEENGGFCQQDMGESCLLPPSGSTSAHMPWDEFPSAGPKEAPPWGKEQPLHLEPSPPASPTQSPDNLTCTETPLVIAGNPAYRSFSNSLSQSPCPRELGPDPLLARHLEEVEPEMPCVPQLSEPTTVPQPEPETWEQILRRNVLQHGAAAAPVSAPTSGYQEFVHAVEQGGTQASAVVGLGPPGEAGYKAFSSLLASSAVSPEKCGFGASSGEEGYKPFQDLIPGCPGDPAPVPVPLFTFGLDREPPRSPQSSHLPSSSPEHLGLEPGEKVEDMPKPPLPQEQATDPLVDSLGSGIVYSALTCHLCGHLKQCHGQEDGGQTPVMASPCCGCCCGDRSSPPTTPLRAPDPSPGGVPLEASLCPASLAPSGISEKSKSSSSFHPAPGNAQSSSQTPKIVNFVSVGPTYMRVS

[2] = target: T2, IL-4R蛋白 (Acrobiosystems, IL-H5221) (human, UniProt P24394 26-232); assay: BLI (Octet RH96), antibody captured on AHC2 probes, IL-4R protein in solution, 1:1 model
T2 construct: The two catalogue numbers differ by one letter, likely a misprint; also called Human IL4R Protein, His Tag (Acro, ILR-H5221); 人IL 4R
T2 sequence (looked up): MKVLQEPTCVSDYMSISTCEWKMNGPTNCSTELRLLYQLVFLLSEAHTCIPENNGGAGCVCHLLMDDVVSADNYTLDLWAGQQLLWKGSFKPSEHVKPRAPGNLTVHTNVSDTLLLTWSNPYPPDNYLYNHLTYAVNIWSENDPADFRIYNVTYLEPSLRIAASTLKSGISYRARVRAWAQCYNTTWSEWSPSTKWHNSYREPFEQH

[3] = target: T1, 人IL-4R表达于HEK293-IL-4R细胞表面 (human IL-4R …); assay: FACS competition: blocking of biotinylated human IL-4 binding to HEK293-IL-4R cells, PE streptavidin, MFI
[4] = target: T3, IL-4Rα on HEK293-hSTAT6/5×STAT6-Luc cells (UniProt P24394 26-825, limits assumed); assay: cell-based or functional assay
T3 sequence (looked up): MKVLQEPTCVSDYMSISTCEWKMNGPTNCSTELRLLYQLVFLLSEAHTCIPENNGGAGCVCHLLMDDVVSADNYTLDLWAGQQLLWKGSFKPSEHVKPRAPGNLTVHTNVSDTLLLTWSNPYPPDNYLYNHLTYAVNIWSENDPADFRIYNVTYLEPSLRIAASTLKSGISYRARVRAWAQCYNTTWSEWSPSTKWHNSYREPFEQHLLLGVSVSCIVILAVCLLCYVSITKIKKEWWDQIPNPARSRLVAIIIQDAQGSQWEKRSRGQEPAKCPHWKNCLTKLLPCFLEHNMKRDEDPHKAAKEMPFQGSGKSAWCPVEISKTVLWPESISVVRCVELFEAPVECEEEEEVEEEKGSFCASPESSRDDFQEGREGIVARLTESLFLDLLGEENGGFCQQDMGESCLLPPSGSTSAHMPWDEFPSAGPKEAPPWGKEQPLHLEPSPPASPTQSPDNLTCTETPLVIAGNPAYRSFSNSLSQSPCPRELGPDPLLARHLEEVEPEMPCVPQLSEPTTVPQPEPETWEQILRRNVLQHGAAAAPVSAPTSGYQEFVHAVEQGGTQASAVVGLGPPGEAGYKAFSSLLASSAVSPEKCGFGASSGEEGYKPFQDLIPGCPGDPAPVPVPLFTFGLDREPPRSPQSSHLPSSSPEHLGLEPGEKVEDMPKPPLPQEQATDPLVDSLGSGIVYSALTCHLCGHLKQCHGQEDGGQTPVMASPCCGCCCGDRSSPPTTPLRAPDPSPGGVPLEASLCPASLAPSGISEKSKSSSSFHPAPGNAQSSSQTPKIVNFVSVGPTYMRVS

EC50 [1]: 0.334 µg/mL
Kd [2]: 0.341 nM
IC50 [3]: 0.075 µg/mL
抑制IL-4诱导的HEK293-hSTAT6/5×STAT6-Luc细胞中STAT6磷酸化活性 (luciferase reporter, IL4 protein 40ng/mL) IC50 [4]: 92.7 nM
抑制IL-13诱导的HEK293-hSTAT6/5×STAT6-Luc细胞中STAT6磷酸化活性 (luciferase reporter, IL-13 protein 10ng/mL) IC50 [4]: 5.6 nM
B1: 65G5 (antibody, human IgG1, kappa, V domains shown)
VH: EVKLVESGGALVQPGGSLKLSCAASGFTFNSYGMSWVRQTPDKRLELVAVISSDGAYTYYPDSMKGRFTISRDNAKSSLYLQMSSLQSEDTAMYYCTLITTWYFDVWGAGTTVTVSS
VL: DIQMTQSSSSFSVSLGDRVTITCKASEELYNRLAWYQQKPGNAPRLFISGATTLETGVPSRFSGSGSGKDYTLSITSLQTEDVATYYCQQYWSSPYTFGGGTKLELKR
notes: also called 抗人IL-4R抗体; 抗IL-4R抗体
